What follows are sequences tested on Ramos cell surface target (unidentified; human B-cell leukemia cells) (assay: competition). Details: competition with FITC-labeled monomer on target cells, flow cytometry.

“TAGGCAGTGGTTTGACGTCCGCATGTTGGGAATAGCCACGCCT / TAGGCAGTGGTTTGACGTCCGCATGTTGGGAATAGCCACGCCT [rigid dimer of SEQ 3 aptamer]” and “TAGGCAGTGGTTTGACGTCCGCATGTTGGGAATAGCCACGCCT / TAGGCAGTGGTTTGACGTCCGCATGTTGGGAATAGCCACGCCT [flexible dimer of SEQ 3 aptamer]” are within 1.5-fold of each other in IC50: 22.5 nM for the first, 33 nM for the second.

“TAGGCAGTGGTTTGACGTCCGCATGTTGGGAATAGCCACGCCT / TAGGCAGTGGTTTGACGTCCGCATGTTGGGAATAGCCACGCCT / TAGGCAGTGGTTTGACGTCCGCATGTTGGGAATAGCCACGCCT [rigid trimer of SEQ 3 aptamer]” and “TAGGCAGTGGTTTGACGTCCGCATGTTGGGAATAGCCACGCCT / TAGGCAGTGGTTTGACGTCCGCATGTTGGGAATAGCCACGCCT / TAGGCAGTGGTTTGACGTCCGCATGTTGGGAATAGCCACGCCT [flexible trimer of SEQ 3 aptamer]” are within 1.5-fold of each other in IC50: 20.8 nM for the first, 27.8 nM for the second.

With “TAGGCAGTGGTTTGACGTCCGCATGTTGGGAATAGCCACGCCT / TAGGCAGTGGTTTGACGTCCGCATGTTGGGAATAGCCACGCCT / TAGGCAGTGGTTTGACGTCCGCATGTTGGGAATAGCCACGCCT / TAGGCAGTGGTTTGACGTCCGCATGTTGGGAATAGCCACGCCT [rigid tetramer of SEQ 3 aptamer]” the IC50 was 11.6 nM.

Same assay, conditions: unlabeled monomer vs FITC-labeled monomer on target cells, flow cytometry

“TAGGCAGTGGTTTGACGTCCGCATGTTGGGAATAGCCACGCCT [Ramos-binding ssDNA aptamer monomer]” showed an IC50 of 400 nM.

From patent US20110275702
